Reference: article PMC7519114
Blank lines part the entries; values can stand above or below the molecule they belong to.

Experiments:
[1] = molecular target: ACKR3 of primary mouse astrocytes (mouse (endogenous in primary astrocytes)) (UniProt P56485)
[2] = molecular target: ACKR3 of primary mouse astrocytes (mouse (endogenous in primary astrocytes)) (UniProt P56485); remark: listed apart in the source

Chain of UniProt P56485 (P56485 whole entry): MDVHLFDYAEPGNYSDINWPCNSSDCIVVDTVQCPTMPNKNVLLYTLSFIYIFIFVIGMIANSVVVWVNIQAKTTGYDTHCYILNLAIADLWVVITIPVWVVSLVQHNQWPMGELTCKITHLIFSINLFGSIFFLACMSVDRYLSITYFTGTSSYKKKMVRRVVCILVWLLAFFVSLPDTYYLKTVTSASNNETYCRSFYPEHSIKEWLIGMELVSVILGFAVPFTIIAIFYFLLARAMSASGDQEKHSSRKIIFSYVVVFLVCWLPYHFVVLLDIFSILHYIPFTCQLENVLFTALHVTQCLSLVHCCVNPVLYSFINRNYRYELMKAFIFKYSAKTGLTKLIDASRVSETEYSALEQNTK

junctional current (Ij) magnitude in astrocyte cell pairs (double patch-clamp), after bath-application of CXCL12 [1]: 56.5%
inhibition of forskolin-induced cAMP production in astrocytes, CXCL12 (10 nM) [2]: 40.8 % inhibition
inhibition of forskolin-induced cAMP production in astrocytes, CXCL12 after pre-treatment with the CXCR4 antagonist AMD3100 (1 μM, 30 min) [2]: 44.9%
Molecule: Human/Feline/Rhesus Macaque CXCL12 (from UniProt P48061 22-93) (ligand)

junctional current (Ij) magnitude in astrocyte cell pairs (double patch-clamp), after bath-application of CXCL11 [1]: 52%
B1: Recombinant mouse CXCL11 (ligand)
chain: FLMFKQGRCLCIGPGMKAVKMAEIEKASVIYPSNGCDKVEVIVTMKAHKRQRCLDPRSKQARLIMQAIEKKNFLRRQNM
